Test results from patent US12674174B2, “Protoporphyrinogen oxidase (PPO) resistance plant” (PLANTARC BIO LTD., priority 2022, dated 2026).

Key:
[1] = tested on: transgenic Arabidopsis plants; assay type: in vivo; conditions: for level of resistance against Aurora (in words): Aurora 0.01% to 0.5%, compared to control plants; for level of resistance to Strike, more tolerant to treatment as compared to control plants: 5 orders of magnitude
Text: (SEQ ID NO: 8 was cloned from SEQ ID NO: 1, SEQ ID NO: 9 was cloned from SEQ ID NO: 2, SEQ ID NO: 10 was cloned from SEQ ID NO: 3, SEQ ID NO: 11 was cloned from SEQ ID NO: 4, SEQ ID NO: 12 was cloned from SEQ ID NO: 5, SEQ ID NO: 13 was cloned from SEQ ID NO: 6 SEQ ID NO: 14 was cloned from SEQ ID NO: 7). […] FIG. 1B summarizes the results of the three experiments described hereinabove.

[2] = tested on: Arabidopsis plants; conditions: yes/no

B1: SEQ ID NO: 6: PPO from Rhizopus sp. Protein. (protein, listed as Rhizopus sp.)
chain: MSSVAILGGGISGLSAAYYLARMAPPTTKITLIEGKKRLGGWIESRRVTPGHYDNIHQLPKNNSKENTILFEAGPRTLRPEGSNGAILLEMIRHLELNNENLMSVSKSHPSARHRYIYYKDKINTLPSDLQSFLLNKPPVLKSVPLAALLEPLKPSRFDKDGIAKDGIQDESIYSFMTRRFNEHTAIHLMGAVIHGIYAGDIKSLSLQSTLRSLYEAERIYGSAVLGMMKGASQVTTSVRERGMAARSRKEDPEWFGRMEKMSVIGFKSGMDTLPHQITSWLEQCPNVEVITDDPAEHIEIAHENKIKTQKGKTVHADHIISTLPSPVLERLVQHQPVLPHLSYNPSADVAVVNLAYSPDEMKLQYDGFGFLTPHRDTPYGNPLPGTLGVVFDSNALPIESERAVKLTAMIGGSDWKDAFGNVPIDELEPKVALDYTRKAVGTFLDIHAEPRYSMVNLQKQCIPQYLVGHQDRMLSLHHAIKKNYGHALSVSGASYLGVSVPDCIKNSRMLVEELLVSGALGSRQKVVTGLGKLEEQPTVDEMRDNARLSRGNTSVIMKS
level of resistance against Aurora (in words) [1]: very high levels of resistance | level of resistance to Strike, more tolerant to treatment as compared to control plants ([1]; Strike 0.01% to 1%): about 10^5

B2: SEQ ID NO: 12: PPO from Fusarium sp. fused to cTP. Chimeric Protein; cloned from SEQ ID NO: 5 (protein)
chain: MELSLLRPTTQSLLPSFSKPNLRLNVYKPLRLRCSVAGGMSRRRAESTAVALLSSPAKSHLQPPLRRLDGIRSLSTSSALARRRPIVACNYTQSFNNGRTFVSQAKDANIAVLGGGLTGLTAAYYLAKKLPSTAKITLYESSDRLGGWIKTDRVPVDIEGKSGTLSFERGARSLSSLVGNTFRFDDLVLYDLALDLGLAINSPSQQPRYIYYPDHLVPTPPNISIFDMLREPLYLEIIGASLGLGINSVRKRTLPSKDYSVSEWLYAVSNSRKGIGNLASAMMHGIYGGDIHKLSARCVLDRLYWGWYLPNPGLSVRPMPVAEQALLETLGQDKQIQKMALEPRSALVDFGDKGMESLPQALSAALREQPNITIKTGEAVQDVVYNKANQQVHITSSNAKDNSKHNSKVYDKVISTLSAQDIALLAGNKLPSLSTAHSVSVMTVNIWFPQENLKPPGFGYLIPNSVAPELNPEHALGVFFDSDVQTRSKDEPAGTKLFVLMGGHYYDRPDVTPPTEEEAIIQARNLLERHLGIPRDAPAYATANFARECIPQHYVGHQDRLKAAHTELTRNFGGRLAVAGGSFTRIGAVASLRAGYDAATAAKKGLEATGLEYLNDIQQFSVVATSQIPVRHFK
level of resistance against Aurora (in words) [1]: not against Aurora | level of resistance against Strike (in words) ([1]; Strike 0.01% to 1%): high levels of resistance | level of resistance to Strike, more tolerant to treatment as compared to control plants ([1]; Strike 0.01% to 1%): about 10^5

B3: SEQ ID NO: 2: PPO from Aspergillus sp. Protein. (protein, listed as Aspergillus sp.)
chain: MRLPCASSRAFRQVRAPLALLHRGQRHAVHTKQFDAAVIGGGITGLTAAYQLSRDPSCSKVTLYEKSSHLGGWLSSEQIPVPGGHVVFEYGPRTLRTSSPSCLPMMDLIMNLDLLDDVLICDKKSPAAQNRYIYYPDHLVRLPFPPTEGLLKTAWTLLMEPLFETFLYSAIFEKPKRAENTHILSRDESVADFVSRRFSPKISENLASAVMAGIFAGDVNRLSAEMAIGYVRELEKRYGSIVDGMMTQRASEMRAMPMDELLALESVAVPSHSDDRYWKSLRAVVTDASVLTLKNGLGQLTDAMAAQLRSSRNVEVVTGTEVTSLSQNPKTQDLTIGFGKNESRTHNRVIATHAPSSLARQIQNTKVGVVPSDTIRDLGQNNYAVTVMVVNLYYEDPDLVPVEGFGYLLPSSVPFEQNPERALGVIFGSQSSEGQDTAPGTKLTVIMGGHLWDGWSESDYPDPDKAIEMAQALLHRHLGIKTAPSVARARLLRDAIPQYTVGHLSRMKELSHSVRSDFHKRLTLAGAWYGTVGIGVVDCIRQGYLASSYGVGSKKLGPGNSRRPWTKHDFHNWELEGGIATSPVRFDNVHVTERQHY
level of resistance against Aurora (in words) [1]: very high levels of resistance | level of resistance to Strike, more tolerant to treatment as compared to control plants ([1]; Strike 0.01% to 1%): about 10^5 | High concentration herbicide tolerance ([2]; Table 1): yes | Herbicide tolerance ([2]; Table 2, FIG. 6C legend: Star 1.25 kg/hectare): yes
